Experiments:
[1] = biological target: T1, human IL-6 receptor (hIL-6R) (Homo sapiens, UniProt P08887); test: phage ELISA for hIL-6R binding in the presence/absence of small molecule cocktail (SC); conditions: absorbance at 450 nm
T1 sequence (P08887 20-357 limits assumed): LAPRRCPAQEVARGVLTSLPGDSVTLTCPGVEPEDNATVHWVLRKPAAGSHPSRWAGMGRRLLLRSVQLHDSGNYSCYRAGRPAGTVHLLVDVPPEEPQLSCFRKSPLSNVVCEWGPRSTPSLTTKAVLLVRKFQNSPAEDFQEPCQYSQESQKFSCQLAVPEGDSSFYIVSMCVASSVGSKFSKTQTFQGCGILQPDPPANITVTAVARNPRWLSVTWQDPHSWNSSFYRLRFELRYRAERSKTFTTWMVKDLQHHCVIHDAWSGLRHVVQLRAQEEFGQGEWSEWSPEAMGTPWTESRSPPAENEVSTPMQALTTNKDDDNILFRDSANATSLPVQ
Protocol: From a single colony of E. coli obtained in (6-1), a phage-containing culture supernatant was collected according to a conventional method (Methods Mol. Biol. (2002) 178, 133-145). […] A StreptaWell 96 microtiter plate (Roche) was coated overnight with 100 μL of TBS containing biotin-labeled hIL-6R. […] After removing 2% skim milk/TBS, purified phages were added to each well of the plate, and the plate was left still at room temperature for one hour to allow antibody-presenting phages to bind to biotin-labeled hIL-6R present in each well in the presence/absence of SC. Each well was washed with TBST or SC/TBST, and HRP-conjugated anti-M13 antibody (Amersham Pharmacia Biotech) diluted with TBS or SC/TBS was added thereto, and the plate was incubated for one hour. After washing with TBST or SC/TBST, the chromogenic reaction of TMB single solution (ZYMED) added in each well was terminated by adding sulfuric acid. Then, the color development was measured by absorbance at 450 nm.

[2] = biological target: T1, human IL-6 receptor (hIL-6R); test: SPR dissociation of antibody from immobilized hIL-6R with or without kynurenine; assay type: binding; conditions: bound in 100 μmol/L kynurenine, then buffer without kynurenine
Protocol: The running buffers used were 20 mmol/L ACES, 150 mmol/L NaCl, 0.05% (w/v) Tween 20, pH 7.4, and 20 mmol/L ACES, 150 mmol/L NaCl, 0.05% (w/v) Tween 20, pH 7.4, 100 μmol/L kynurenine. The measurements were performed at 25° C. As an analyte, 5 μg/mL 6RNMSC1-2_F02 diluted with 20 mmol/L ACES, 150 mmol/L NaCl, 0.05% (w/v) Tween 20, pH 7.4, containing 100 μmol/L kynurenine was allowed to interact for 180 seconds with hIL-6R immobilized onto Sensor chip CM5 by amine coupling. Then, the mode of the dissociation of hIL-6R was observed under each running buffer condition. […] Specifically, the regulation by kynurenine on binding of the antibody to hIL-6R was confirmed to be reversible.

[3] = biological target: T1, human IL-6 receptor (hIL-6R); test: SPR effect of kynurenine concentration on binding to immobilized hIL-6R; conditions: 1 μg/mL antibody, 180 seconds
Protocol: Next, the effect of kynurenine concentration on antigen-antibody reaction between 6RNMSC1-2_F02 and hIL-6R was assessed using Biacore T200 (GE Healthcare). The running buffer used was 20 mmol/L ACES, 150 mmol/L NaCl, 0.05% (w/v) Tween 20, pH 7.4. Antigen-antibody reaction between 6RNMSC1-2_F02 and human IL-6R was assayed at 25° C. hIL-6R was immobilized onto Sensor chip CM5 by amine coupling. As an analyte, 1 μg/mL 6RNMSC1-2_F02 diluted with 20 mmol/L ACES, 150 mmol/L NaCl, 0.05% (w/v) Tween 20, pH 7.4, containing kynurenine adjusted to various concentrations were allowed to interact for 180 seconds and changes in the amount of binding were observed.

[4] = SPR (Biacore T200) binding of 6RNMSC1-2_F02 and variants to kynurenine
Protocol: An appropriate amount of protein A (Invitrogen) was immobilized onto Sensor chip CM4 (GE Healthcare) by the amine coupling method. The antibody of interest was captured thereon, and the antigen kynurenine and derivatives thereof were allowed to interact. The running buffer used was 50 mmol/L Tris-HCl, 150 mmol/L NaCl, 0.02% (w/v) Tween 20, 5% DMSO, pH 7.6. All measurements were carried out at 15° C. The antigens were diluted with the running buffer.
Then, the running buffer was run at a flow rate of 30 μL/min for 60 seconds to observe the dissociation of antigens from the antibody. Kinetic parameters, the association rate constant ka (1/Ms) and the dissociation rate constant kd (l/s), were calculated based on the sensorgrams obtained by the measurements. The dissociation constant KD (M) was calculated from these constants. Each parameter was calculated using Biacore T200 Evaluation Software (GE Healthcare).
(§1) Meanwhile, the type of sensor chip immobilized with Protein A was changed to Sensor chip Series S CM3 (GE Healthcare) to measure some of the variants. When kynurenine dissociation was too fast to determine the dissociation rate constant, a dissociation constant KD (M) was calculated by analysis of equilibrium values based on the degree of binding response during the interaction with each antigen (association phase). In this case also, Biacore T200 Evaluation Software (GE Healthcare) was used to calculate the parameters.
as §1
(§2) When kynurenine dissociation was too fast to determine the dissociation rate constant, the dissociation constant KD (M) was calculated by analysis of equilibrium values based on the degree of binding response when it is interacted with each antigen (association phase). Also in this case, the Biacore T200 Evaluation Software (GE Healthcare) was used to calculate parameters. […] Each variant and its parental antibody F02h011/F021003 were compared in terms of the KD value for kynurenine.
as §2, with “analyzing” for “analysis of”, “sequence” for “antibody”

hIL-6R = biological target: T2, hIL-6R (Homo sapiens, UniProt P08887); assay type: binding; conditions: Octet
T2 sequence (P08887 20-357): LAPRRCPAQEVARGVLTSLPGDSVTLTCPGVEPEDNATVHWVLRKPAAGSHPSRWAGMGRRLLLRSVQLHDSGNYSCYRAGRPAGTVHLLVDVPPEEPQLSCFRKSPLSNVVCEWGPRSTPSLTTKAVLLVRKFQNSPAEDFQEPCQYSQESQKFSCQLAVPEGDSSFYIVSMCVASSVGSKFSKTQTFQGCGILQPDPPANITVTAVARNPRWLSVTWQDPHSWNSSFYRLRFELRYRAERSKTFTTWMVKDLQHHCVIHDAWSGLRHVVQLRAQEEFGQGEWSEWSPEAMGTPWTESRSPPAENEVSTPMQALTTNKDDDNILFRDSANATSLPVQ
Protocol: Octet ([…]) was used to assess the effect of various small molecules on the antigen-antibody reaction between hIL-6R and the kynurenine-switch antibody 6RNMSC1-2_F02 obtained from a library. A total of eight molecules shown in Example (7-5), which are kynurenine and derivatives thereof, were evaluated as small molecules. The assay buffer used was TBS, pH 7.4, and measurements were carried out at 30° C. Biotinylated hIL-6R was immobilized onto a streptavidin sensor chip, the antibody was allowed to interact, and changes in the amount of its binding were observed. The antibody was diluted using the assay buffer or the assay buffer to which either one of the small molecules has been added. The final concentration of each small molecule was adjusted to 100 uM, while the final antibody concentration was adjusted to 10 μg/mL.

B1: 6RNMSC1-2_F02: antibody binding hIL-6R in the presence of kynurenine; heavy chain SEQ ID NO: 32, light chain SEQ ID NO: 33 (antibody, listed as Homo sapiens, V domains shown)
VH: QVQLVQSGAEVKKPGSSVKVSCKASGGTFSSYAISWVRQAPGQGLEWMGGIIPIFGTANYAQKFQGRVTITADESTSTAYMELSSLRSEDTAVYYCARDAPVVARPRGAFDIWGQGTMVTVSS
VL: DIVMTQTPLSSPVTLGQPASISCRSSQSLVHSDGNTYLSWLQQRPGQPPRLLIHEISNRFSGVPDRFSGSGAGTNFTLKISRVEAEDVGVYYCMQATQFPRTFGQGTKVEIK
binding activity to the antigen hIL-6R in the presence of a small molecule mixture [1]: having binding activity
dissociation from hIL-6R when kynurenine is no more present [2]: rapidly dissociating hIL-6R
effect of kynurenine concentration on the amount of binding to hIL-6R [3]: the higher the concentration of kynurenine acting as a switch, the greater the amount of 6RNMSC1-2_F02 binding to hIL-6R
kynurenine binding (in words) ([4]; Biacore): confirmed once again to bind to kynurenine
Kd ([4]; Biacore T200, 15° C., 5% DMSO): 239 µM
ka for kynurenine ([4]; Biacore T200, 15° C., 5% DMSO): 709 M⁻¹ s⁻¹
kd for kynurenine ([4]; Biacore T200, 15° C., 5% DMSO): 0.17 L/s
hIL-6R binding in the presence of 3-hydroxy-DL-kynurenine (hIL-6R; 100 uM small molecule): binding to hIL-6R was observed
hIL-6R binding in the presence of RO0635389-000-001 (hIL-6R; 100 uM small molecule): binding to hIL-6R was observed
hIL-6R binding in the presence of RO0635390-000-001 (hIL-6R; 100 uM small molecule): binding to hIL-6R was observed
hIL-6R binding in the absence of kynurenine (hIL-6R; 30° C., antibody 10 μg/mL): not observed
hIL-6R binding in the presence of 100 uM kynurenine (hIL-6R; 30° C., antibody 10 μg/mL): bound to hIL-6R

Source: patent publication US20210180049A1 (CHUGAI SEIYAKU KABUSHIKI KAISHA, priority 2013, published 2021)
